Data as given in the supplement of paper PMC9170038.

Tested on: MS2 coat protein
Test: apparent KD of MS2 coat protein; designed switch direction (-1 OFF switch, 1 ON switch): -1; higher = weaker reporter binding
In short: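 Three titration conditions were used: no input, 200 uM small-molecule ligand, and an oligonucleotide input. In each, SNAP-549-labelled MS2 coat protein was raised from 0.7 or 1.5 nM, doubling, to 3 µM over designed RNA switches transcribed on Illumina chips by stalled E. coli RNA polymerase. Curve fits of normalised cluster fluorescence gave values whose per-design median over clusters is the apparent KD.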

[1] = input ligand: microRNA oligo, concentration not stated
[2] = Eterna round: R95, input ligand: FMN 200 uM
[3] = Eterna round: R95, input ligand: microRNA oligo, concentration not stated
[4] = Eterna round: R95, input ligand: none

Sequence | apparent KD of MS2 coat protein (input ligand: FMN 200 uM) [nM] | apparent KD of MS2 coat protein (input ligand: none) [nM] | apparent KD of MS2 coat protein [1] [nM] | apparent KD of MS2 coat protein [2] [nM] | apparent KD of MS2 coat protein [3] [nM] | apparent KD of MS2 coat protein [4] [nM]
GGACUAGGAGGAUAUACAUGAGGAUCACCCAUGUGUUGAUAAAGUCUACACAAUGUUAGUAGAAGGCUUAGACC [Eternabot (L2) Solution 18] (Eterna round: R97, puzzle: Exclusion 3) | 22.5 | 17.5 |  |  |  | 
GGACUGCGACACAGCCAAACAAAACAUGAGGAUCACCCAUGUCAGGAUAUACCGAUGCAGCAUCUGUAGAAGGGACAGAUCCAA [Qusorave] (Eterna round: R96, puzzle: Exclusion NG 3) | 80.3 | 85.9 | 45.4 |  |  | 
GGAGAACAUGAGGAUCACCCAUGUAAGGAUAUGCAAAAGGAUAUAGAAGGAAAAAAAAGCAGAAGGUACAAAGG [salish99-ex1_r3_101] (puzzle: Exclusion 1) |  |  |  | 79.5 | 81.9 | 75.1
GGAGAGGCAGGAUAUACAUGAGGAUCACCCAUGUGAGCGAGGAGAACGAGCAAGAGAGGUAGAAGGGCCGGGAG [AK-MS2ROC-r4-exclusion3-27] (Eterna round: R97, puzzle: Exclusion 3) | 46.5 | 44.9 |  |  |  | 
GGAGCGGCAGGAUAUACAUGAGGAUCACCCAUGUAAAGAAGGGUAAGAAACCACCUCGGUAGAAGGGCCAGGAG [AK-MS2ROC-r4-exclusion3-10] (Eterna round: R97, puzzle: Exclusion 3) | 191 | 94.5 |  |  |  | 
GGAGGAAAGAUAGGAUAUUAGAGGAAGGUGGUGAUAGAGACAUGAGGAUCACCCAUGUAAGGAGGUAAGAAGGGUCGAGGAGGA [AK ExNG2-V2-6] (Eterna round: R96, puzzle: Exclusion NG 2) | 231 | 243 | 66.5 |  |  | 
GGAGGACGAGCAGGAUAUUUUCACAUGAGGAUCACCCAUGUGUAAUCAGGGUAAUCCUCCGCCGAAAAGAAGGGUUCGGAAUAA [Mat - Exclusion NG 2 - Mod of JL - D82] (Eterna round: R96, puzzle: Exclusion NG 2) | 60 | 70.5 | 52.4 |  |  | 
GGAGGUGAGGUAAGGAUAUCCUCCUCGAAAGAGGAGGAGAAGGUACAUGAGGAUCACCCAUGUAAGGAAGGAGG [AK-MS2ROC-r4-Bmoexclusion4-11] (Eterna round: R97, puzzle: Brourd's mod of Exclusion 4) | 152 | 54.2 |  |  |  | 
GGAGUACAUGAGGAUCACCCAUGUGAGGAUAUGUAAGGAUAGUAGGUAAGGAAAGAGGACAGAAGGCACGGGAA [JR_Exclu1_Sub070] (puzzle: Exclusion 1) |  |  |  | 46 | 41.4 | 67.2
GGAUAAAAGACAGGAUAUGAGGAGAGAGAGAGAUCAGAAGGGUCACAUGAGGAUCACCCAUGUGAGUUCUCGAUAAGAAACACG [Prohibition 54 - Jieux - Exclusion NG 1] (Eterna round: R96, puzzle: Exclusion NG 1) | 15.5 | 18.4 | 12.7 |  |  | 
GGAUAAAAGUCAGGAUAUACGUAUCACUAACGAGUAGAAGGGACACAUGAGGAUCACCCAUGUGAGUUCUCAAUAAGAAACACG [Prohibition 62 - Jieux - Exclusion NG 1] (Eterna round: R96, puzzle: Exclusion NG 1) | 13.8 | 14.9 | 12.2 |  |  | 
GGAUAGUGAGGAUAUCGAUGUUAGGAGGAGUAGAUAGGAGGCGAGAAGGCACAUGAGGAUCACCCAUGUAUGGA [JR_Exclu4_Sub068] (puzzle: Exclusion 4) |  |  |  |  | 47.8 | 
GGAUAGUGAGGAUAUGCAUACGGUGUAAGUCCCAGAUCGAAACAUGAGGAUCACCCAUGUAGAAGGCGCAAAAC [Begerila] (puzzle: Exclusion 2) |  |  |  |  | 20.2 | 
GGAUAUAACGUAGGAUAUGAGAGAAACAGACGAUCAGAAGGACGACAUGAGGAUCACCCAUGUGAUCUAUCAAUAUUAUACAUG [Prohibition 97 - Jieux - Exclusion NG 1] (Eterna round: R96, puzzle: Exclusion NG 1) | 446 | 300 | 180 |  |  | 
GGAUAUCGAGGAUAUACAUGAGGAUCACCCAUGUUGAAUCCGUGGGAUGGCCGACGAUGUAGAAGGUGACUCAU [Eternabot (Original) Solution 27] (Eterna round: R97, puzzle: Exclusion 3) | 134 | 232 |  |  |  | 
GGAUCACAUGUUAGGAUAUGCAGGUCCUUGGAUCUGCAGAAGGGACAUGAGGAUCACCCAUGUCAUGAAGAUCC [Mat - Exclusion 4 - Eli Mod - D52] (Eterna round: R97, puzzle: Brourd's mod of Exclusion 4) | 43.4 | 21 |  |  |  | 
GGAUCAUAUGUCAGGAUAUGCAGGUCCUUGGAUCUGCAGAAGGGACAUGAGGAUCACCCAUGUCAUGUAGAUCC [Mat - Exclusion 4 - Eli Mod - D54] (Eterna round: R97, puzzle: Brourd's mod of Exclusion 4) | 116 | 25.3 |  |  |  | 

Sequence | apparent KD of MS2 coat protein (input ligand: FMN 200 uM) [nM] | apparent KD of MS2 coat protein (input ligand: none) [nM] | apparent KD of MS2 coat protein [1] [nM] | apparent KD of MS2 coat protein [2] [nM] | apparent KD of MS2 coat protein [3] [nM] | apparent KD of MS2 coat protein [4] [nM]
GGAUCCUGGGUCAGGAUAUGCUGACAGCUUUGUCAGCAGAAGGGACAUGAGGAUCACCCAUGUGCUCGGUUUUG [Magic-20] (puzzle: Brourd's mod of Exclusion 4) |  |  |  |  | 9.68 | 
GGAUCGAAAGUGAGGAUAUACCACUGGAUACAGUGGUAGAAGGCACAUGAGGAUCACCCAUGUCUCUACGAUCC [Fiskers BMX 4 - 42] (puzzle: Brourd's mod of Exclusion 4) |  |  |  | 39.9 | 13 | 15
GGAUCGAAUGUCAGGAUAUGCUGGUCCUUGGAUCAGCAGAAGGGACAUGAGGAUCACCCAUGUCCUCUCGGUCC [Eli bmx4 4.52] (Eterna round: R97, puzzle: Brourd's mod of Exclusion 4) | 222 | 26.5 |  |  |  | 
GGAUCGAAUGUGAGGAUAUACCACUGGAUACAGUGGUAGAAGGCACAUGAGGAUCACCCAUGUCCUUACGAUCC [Fiskers BMX 4 - 47] (puzzle: Brourd's mod of Exclusion 4) |  |  |  |  | 74.2 | 
GGAUCGAAUGUGAGGAUAUGCUGGUCCUUGGAUCAGCAGAAGGCACAUGAGGAUCACCCAUGUGAAGACGGUCC [Eli bmx4 4.31] (Eterna round: R97, puzzle: Brourd's mod of Exclusion 4) | 201 | 41.4 |  |  |  | 
GGAUCGAGUGUGAGGAUAUGCUGGUCCUUGGAUCAGCAGAAGGCACAUGAGGAUCACCCAUGUGGAGACGGUCC [JL bmx4 3.17] (puzzle: Brourd's mod of Exclusion 4) |  |  |  | 298 | 92.4 | 102
GGAUCUACUGAGGAUAUUACAUCACCCGACUGAUAAGAAGGCAGAACAUGAGGAUCACCCAUGUGGGUAGCCAC [Polaris5] (Eterna round: R97, puzzle: Exclusion 6) | 56.3 | 35.7 |  |  |  | 
GGAUCUUGGGUCAGGAUAUGCUGAUAGUUAUGUCAGCAGAAGGGACAUGAGGAUCACCCAUGUGCUUGGUUUUG [Magic-17] (Eterna round: R96, puzzle: Brourd's mod of Exclusion 4) | 40.9 | 17.2 | 12.7 |  |  | 
GGAUCUUGGGUCAGGAUAUGCUGAUAGUUAUGUCAGCAGAAGGGACAUGAGGAUCACCCAUGUGCUUGGUUUUG [Magic-17] (puzzle: Brourd's mod of Exclusion 4) |  |  |  |  | 13.1 | 
GGAUGUUCAGAGGAUAUCGAUCCCGAGACCGGGCGAGAAGGUUGAACAUGAGGAUCACCCAUGUGAGGCCUAAC [Cebezais] (Eterna round: R97, puzzle: Exclusion 6) | 38.5 | 12.7 |  |  |  | 
GGCAAACAUGAGGAUCACCCAUGUCAGGAUAUUAGGCGAUCGUCGAUAGACGAUAGCCUGAGAAGGGACAUGCC [Mat - Exclusion 1 - Eli Mod - D16] (Eterna round: R97, puzzle: Exclusion 1) | 391 | 85.2 |  |  |  | 
GGCAAUAUGUAGGAUAUCGUAUCGGAAACGAUACGAGAAGGGCAAACAUGAGGAUCACCCAUGUUCUUCAAGCC [Fiskers Ex 6 - 11] (puzzle: Exclusion 6) |  |  |  |  | 15.6 | 
GGCACACAUGAGGAUCACCCAUGUGAGGAUAUGUGGCGAUCGUCGAUAGACGAUAGCCACAGAAGGCACAGGCC [Mat - Exclusion 1 - Eli Mod - D21] (Eterna round: R97, puzzle: Exclusion 1) | 23.2 | 19.2 |  |  |  | 
GGCACACAUGAGGAUCACCCAUGUGAGGAUAUGUGGCGAUCGUCGAUAGACGAUAGCCACAGAAGGCACAUGCC [Mat - Exclusion 1 - Eli Mod - D9] (Eterna round: R97, puzzle: Exclusion 1) | 39.4 | 17.8 |  |  |  | 
GGCACACAUGUAGGAUAUCUGCACGUUUAGUGCAGAGAAGGACAUGAGGAUCACCCAUGUAAUUAAGAUCAAUUAUUAAGUGCC [ENG1/3-A2] (Eterna round: R96, puzzle: Exclusion NG 1) | 564 | 58.3 | 48.6 |  |  | 
GGCAUAAACGAGGAUAUCGUAUCGGAAACGAUACGAGAAGGUGUAACAUGAGGAUCACCCAUGUUCCUCAAGCC [Mat - Exclusion 6 - Eli Mod - D58] (puzzle: Exclusion 6) |  |  |  |  | 38.1 | 
